Experimental data reported in PMC9821441, “Quick and Spontaneous Transformation between [3Fe–4S] and [4Fe–4S] Iron–Sulfur Clusters in the tRNA-Thiolation Enzyme TtuA” (International Journal of Molecular Sciences, 2023).

Molecular target: T1, [4Fe–4S]-TtuA (tRNA-thiolation enzyme TtuA from Thermus thermophilus HB27, reconstituted with a [4Fe–4S] … (Thermus thermophilus (HB27 strain), UniProt Q72LF3 1-321)
T1 construct: TtuA, tRNA-thiolation enzyme, Thermus thermophilus HB27; Carries a [4Fe–4S] cluster with the unique (non-cysteine-chelated) Fe; same polypeptide as m2, only the cofactor differs; also called TthTtuA; reconstituted TtuA; source: [4Fe–4S] reconstituted with DTT, FeCl3 and Na2S
T1 sequence (looked up): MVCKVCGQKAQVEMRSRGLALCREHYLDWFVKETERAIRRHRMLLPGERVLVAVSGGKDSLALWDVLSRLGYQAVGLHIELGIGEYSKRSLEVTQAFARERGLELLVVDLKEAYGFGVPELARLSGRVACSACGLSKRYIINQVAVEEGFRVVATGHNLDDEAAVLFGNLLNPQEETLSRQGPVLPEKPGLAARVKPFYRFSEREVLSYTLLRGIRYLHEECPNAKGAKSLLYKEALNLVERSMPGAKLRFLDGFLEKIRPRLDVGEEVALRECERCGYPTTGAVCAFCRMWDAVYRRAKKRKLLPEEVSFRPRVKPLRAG
Experiment: EPR spectroscopy; TtuA mixed with TtuB–COSH to a final concentration of 0.5 mM, 25 °C for 5 min, strictly anaerobic; then 5-fold molar excess dithionite, 25 °C for 10 min, frozen; CW X-band EPR (~9.59 GHz) at 12 K for [4Fe–4S]1+ and 40 K for [3Fe–4S]1+; reads the Fe–S cluster only
Details: both partners purified

B1: TtuB–COSH (sulfur donor protein TtuB from Thermus thermophilus HB27 with a C-terminal thiocarboxylate) (natural protein, Thermus thermophilus (HB27 strain), UniProt Q72LF4 1-65, looked up)
chain: MRVVLRLPERKEVEVKGNRPLREVLEELGLNPETVVAVRGEELLTLEDEVREEDTLEVLSAISGG
modifications: not fully specified (C-terminus)
notes: TtuB, sulfur donor (sulfur carrier) protein, Thermus thermophilus HB27; source: E. coli B834 (DE3), pTYB1, purified on chitin resin; intein cleaved with 50 mM ammonium sulfide; not shown: intein, C-terminal, cleaved
B1: binds.
